Measurements reported in US7297515 (MYRIAD GENETICS, dated 2007).

Experiments:
[1] = target: T1, novel protein PN1851, fragment residues 14-369 (human, UniProt P04386 768-881 (Saccharomyces cerevisiae entry)); assay: yeast two-hybrid search, bait ZNF202 33-118
T1 construct: range 768-881
Text: (§1) The new construct was selected directly in the yeast strain PNY200 for its ability to drive tryptophane synthesis (genotype of this strain: MATα trp1-901 leu2-3, 112 ura3-52 his3-200 ade2 gal4Δ gal80). In these yeast cells, the bait was produced as a C-terminal fusion protein with the DNA binding domain of the transcription factor Gal4 (amino acids 1 to 147). Prey libraries were transformed into the yeast strain BK100 (genotype of this strain: MATa trp1-901 leu2-3,112 ura3-52 his3-200 gal4Δ gal80 LYS2::GAL-HIS3 GAL2-ADE2 met2::GAL7-lacZ), and selected for the ability to drive leucine synthesis. In these yeast cells, each cDNA was expressed as a fusion protein with the transcription activation domain of the transcription factor Gal4 (amino acids 768 to 881) and a 9 amino acid hemagglutinin epitope tag. PNY200 cells (MATα mating type), expressing the bait, were then mated with BK100 cells (MATa mating type), expressing prey proteins from a prey library. The resulting diploid yeast cells expressing proteins interacting with the bait protein were selected for the ability to synthesize tryptophan, leucine, histidine, and adenine. […]

[2] = target: T2, zinc finger protein 202, alt. transcript beta (ZNF202b), bait fragment amino acids 1-199 (human, UniProt P04386 1-147; O95125 1-199); assay: yeast two-hybrid; prey fragment isolated with ZNF202b bait 1-199
T2 construct: also called ZNF202beta; ZNF202 m1
Text: as §1, with “In” for “The new construct was selected directly in the yeast strain PNY200 for its ability to drive tryptophane synthesis (genotype of this strain: MATα trp1-901 leu2-3, 112 ura3-52 his3-200 ade2 gal4Δ gal80). In”, “adenine. DNA was prepared from each clone, transformed by electroporation into *E. coli* strain KC8 (Clontech KC8 electrocompetent cells, Catalog No. C2023-1), and the cells were selected on ampicillin-containing plates in the absence of either tryptophane (selection for the bait plasmid) or leucine (selection for the library plasmid). DNA for both plasmids was prepared and sequenced by the dideoxynucleotide chain termination method.” for “adenine.”

[3] = target: T3, zinc finger protein 202, alt. transcript beta (ZNF202b), bait fragment amino acids 1-224 (human, UniProt P04386 1-147; O95125 1-224); assay: yeast two-hybrid; prey fragment isolated with ZNF202b bait 1-224
T3 construct: also called ZNF202beta; ZNF202 m1
Text: as §1, with “In” for “The new construct was selected directly in the yeast strain PNY200 for its ability to drive tryptophane synthesis (genotype of this strain: MATα trp1-901 leu2-3, 112 ura3-52 his3-200 ade2 gal4Δ gal80). In”, “adenine. DNA was prepared from each clone, transformed by electroporation into *E. coli* strain KC8 (Clontech KC8 electrocompetent cells, Catalog No. C2023-1), and the cells were selected on ampicillin-containing plates in the absence of either tryptophane (selection for the bait plasmid) or leucine (selection for the library plasmid). DNA for both plasmids was prepared and sequenced by the dideoxynucleotide chain termination method.” for “adenine.”

Binder | binding result [1] | binding result [2] | binding result [3]
zinc finger protein 202, alt. transcript beta (ZNF202b), bait fragment amino acids 33-118 (other, UniProt P04386 1-147, looked up, also called ZNF202beta; ZNF202 m1) MKLLSSIEQACDICRLKKLKCSKEKPKCAKCLKNNWECRYSPKTKRSPLTRAHLTEVESRLERLEQLFLLIFPREDLDMILKMDSLQDIKALLTGLFVQDNVNKDAVTDRLASVETDMPLTLRQHRISATSSSEESSNKGQRQLTVSSVLQRDDPVLETSHQNFRRFRYQEAASPREALIRLRELCHQWLRPERRTKEQILELLVLEQFLTVLPGELQSWVRGQRPESGEEAV | binds |  | 
novel protein PN7745, prey fragment amino acids 44-171 (other, not shown: small tags and cut ends, range 768-881; Yeast two-hybrid prey) ANFNQSGNIADSSLSFTFTNSSNGPNLITTQTNSQALSQPIASSNVHDNFMNNEITASKIDDGNNSKPLSPGWTDQTAYNAFGITTGMFNTTTMDDVYNYLFDDEDTPPNPKKENAADAESFRQRFRWFCYSEVAGPRKALSQLWELCNQWLRPDIHTKEQILELLVFEQFLTILPGEIRIWVKSQHPESSEEVVTLIEDLTQILEEKDPVSEDSTVSQEENSKEDKMVTVCPNTESCESAL |  | binds | 
novel protein PN7745, prey fragment amino acids 2-156 (other, not shown: small tags and cut ends, range 768-881; Yeast two-hybrid prey) ANFNQSGNIADSSLSFTFTNSSNGPNLITTQTNSQALSQPIASSNVHDNFMNNEITASKIDDGNNSKPLSPGWTDQTAYNAFGITTGMFNTTTMDDVYNYLFDDEDTPPNPKKEQAVVPLNKMTAISPEPQTLASTEQNEVPRVVTSGEQEAILRGNAADAESFRQRFRWFCYSEVAGPRKALSQLWELCNQWLRPDIHTKEQILELLVFEQFLTILPGEIRIWVKSQHPESSEEVVTLIEDLTQILEEKDPVSEDSTVSQEENSKEDK |  |  | binds
novel protein PN7745, prey fragment amino acids 2-171 (other, not shown: small tags and cut ends, range 768-881; Yeast two-hybrid prey) ANFNQSGNIADSSLSFTFTNSSNGPNLITTQTNSQALSQPIASSNVHDNFMNNEITASKIDDGNNSKPLSPGWTDQTAYNAFGITTGMFNTTTMDDVYNYLFDDEDTPPNPKKEQAVVPLNKMTAISPEPQTLASTEQNEVPRVVTSGEQEAILRGNAADAESFRQRFRWFCYSEVAGPRKALSQLWELCNQWLRPDIHTKEQILELLVFEQFLTILPGEIRIWVKSQHPESSEEVVTLIEDLTQILEEKDPVSEDSTVSQEENSKEDKMVTVCPNTESCESAL |  | binds | binds
